Measured values published in a protein production outcome set (Wang et al. 2014).

Assay: label from the status in PepcDB records

Sequence | protein production
YAVQICKGMDYLGSRQYVHRDLAARNVLVESEHQVKIGDFGLTKAIETDKEYYTVKDDRDSPVFWYAPECLMQSKFYIASDVWSFGVTLHELLTYCDSDSSPMALFLKMIGPTHGQMTVTRLVNTLKEGKRLPCPPNCPDEVYQLMRKCWEFQPSNRTSFQNLIEGFEALLK | failed
MNFGEAVSSFFRNYVNFSGRASRSEFWYSYLFIIIVGVILVIVDTIVKNEIISSIWNLAALLPTLAMTTRRLHDINRSGWHQLLAWFIPVGSIALIIWYCKKSDDTVTLSEIERVFR | failed
MVDQQDTFAEYFKNWYIFYKKPKVSKVTLNRYQYTYNVINEYFGNKLLKDITRANYQKFIVKYGQNHSPNTMKMINNCIKACVKNAVYDEEIKKDFTYNIELISNRLEHHHHHH | failed
MTMRVVTAPAEPPQGASHVAPSFTRMDTSVLGRWWWTVDRPMLGAVALLIAAGVFLILAAGPPAAGRIGAQTYHFVQRQFLFVPVAGVLVIAVSLLPVLWVRRIAVLLFALFMVLLLGTLFVSSDIKGASRWIAIGPFALQPSEFVKPTFAVVTAWMFASARTQDRFPGNLIAMLLMAVVGALLVAQPDFGMTMVVACVWGTQFFLAGLSLVWVVLLAAVGMIGAVIAYFALPHVQSRVDRFLDPASGDQYQIRQSMKAFMEGGLFGRGPGEGRVKEFLPDAHTDFIFAVAGEEFGLFLCLTIVALFAFLIIRSAIRLRREQNLFVLIAAGGLLTQLGLQALINMASSLSLIPTKGMTLPFISYGGSSLLSTAVAMGMVLALTRRRAHGERT | failed
MVQHHNLYELSPMDTGWTICVMVLRINKKFLNPNAFELRFVLDDEWDTQIEATIRPRFSPFYFDRIEKNQWKTISTFLVRPNCEPIRTTPHEFRILFMDHTIITSSTS | failed
MTPQNTIARELLFLALLSTLWAASYTFIKIGVETIPPLTFIAARTLIAGLLLLVVIRLRGLRLPRDPATWRLFFVQACINSVLPFTLIAWAEQSIDAGLAVILNATTPIFTFLLTALVIRHETVSGRKLFGTIAGMTGVCLIIGVEALGGAGEAIWSQLAVLTAAFSYACAAIFSKNFKGLDPVMPAAGSLICGAVLLLPVSLIVDRPWTLSPSAASLTALVCLSVFSTALAFMIYFRLMQTLGSVGTTSQAYLRVPVGVAIGMVFLGEVPTSAMWVGLVCVIAGVLAMTLPSRRRPATQGG | failed
QTQVNAEKKIQVEFVSANPTSSLHVGHGRGAAYGMTVANLLEATGAQVDREYYVNDAGRQMDILATSTYLRYLELLGQPLVFPKNAYQGDYVKEIAQSIIDKDGDAYVRSVADVYRNVPEDVQYAEELDSEGNKVVLSGDKEKHIDGLIANSQQLIGQGYRVFHQAALKAILDDIKDDLADFGVTFDQWFSEASLTQKIDEALQTLDQRGYLYEKEGNIWFKSTKFGDEKDRVVKRRNGQTTYFASDIAYHLDKLQRGYTHIVDIWGSDHHGYIARVKAAIDAMGYDSSKLTVLLVQFVSLWRGGEMVQMSSRSGQFVTLRELRQEVGNDAARFYYVMRKSEQHIDFDLDLAVSQSKDNAVYYIQYAHARICRMLEKANS | failed
MKHAKKSLFTFIIFMTILSITFNPFSAKAAPLMLNLPAPQVDQLYIGDDYITGKLQQEVPMHYPGNAAYVLFNNKQYNITDYTVENDVNFRLKLPKTLEAGDTLNYFTITGNVLDPVAYPGQESYKLAGPFSPIEKANIQVNYVDETNQTLATSDTLSGKLGETYTTSPKAIDGYQVKETPTNATGTYTTNTETIQINYVYEKTAVEGANVSVEYINEATNESIAPTETLSGKIGTTFQAEVKEIDGYELSQVPSNQSGTYTDQTQSVIFKYKKITTPDEVAKDVTVTYKDTKGNQLADPVILKGDIGSTFETEAKSFKGYKLTKTPSNHSSVFTSDSQEVEYVYSKDDAVITPPVTPVNPDKPIINPVKPVNPATSTVPNKNISKKNTTKTVNQTGKTSTALQLPKTGDSENNLPLIIGVSLLISGVYIFTTRRKRVK | failed
MKRSDKYTDDYIEQRYESQRPHYNTYYQPIGKPPKKKKSKRIFLKAIITILILLIIFFGVMYFISSRANVDDLKSIENKSDFVATENMPNYVKGAFISMEDERFYKHHGFDIKGTTRALFSTISDRDVQGGSTITQQVVKNYYYDNERSFTRKIKELFVARKVEKQYSKNQILSFYMNNIYYGDNQYTVEGAANHYFGVTVDKNNSNMSQISVLQSAILASKVNAPSVYDVNDMSNNYINRVKTNLEKMKQQNFISESQYQEAMSQLGN | not failed
MREGSCPRLARCPGANWGHGRILHTRLHLASLPRPCYFFVTAYINGRETITASCKRSGVSPIPFRPMSPDFPLAPLDLAIIVGYFAVVGIIGYVVAQRIESGEDLFLAGRTLTWGTIGFSLFASNISSTTLIGLAGDAYRTGIAVSNYEWMAGIVLVFIAVFFVPFFIRSGLTTIPEYLEKRFDVRSRKYFSGLTIFTSVIIDTAGGIYAGTLVIKTFFPDLIPGMGPEMDFYVTCFILALIAGVYTAAGGLAAVVYTDILQAVILLVGSVFIAGITFAEFDFSWAQATAQLPEGHLSLMRPMGAEGLPWLGTLVGVPILGFYYWGLNQYIVQRILGARDLDNARWGAMLGGLLKLLPLFIMVLPGAFALQLYPDLGNPDQVFPTLVTDLLPVGIVGLVMAGLIAAIMSTIDSTLNSASTLITIDFVKPRWPDLTPQQVGTVGRVTTIILMLFAAVWAPQIREFPGLWSYIQSVLSYLVPPVVAVFLLGIFWPRTNGSGAFATLLGGHALSIAVFLCAQDGLLFADAPIDLHFTIIAGILTALCLGMLVAFSLTLGPPPAEEEIDDLTWANRVLETGPAMAWYKNYRVHAATVLALTAVMLVVFW | failed
MKGIINMATFKQYKTKSGAFWEAFTSVGKDTNGKAKRMHKRGFKTKKEAQLWTSNVQTDFTKNGFIANDNITFAELYTKWFNEDYKEQVKESTYMITDDIFRLHILPELGSQRVKRITVAQCQSIVHKWLNQGFKTYRRFRTYAISVFDFGVRMELTTRNPMAKTSIPKQKTKPQAPHVDFYEKSELLHFLDCASKHENPQAFMFFRLLAFTGLRRGEALALQWSDINFETNELTVNKTQAVGKRWRTIIQTPKTNTSYRTIVLDPDTAQWLHKWKMTQARQCFELGFNANDPSQLVFTNQQNKLMSPSTVNYFNWSICKKYGLRHIKIHAFRHTFCTLAFEAHAGINEVSKTLGHADLKITEQIYLHVTKKQKNETASKLARYMSEL | failed
MTPEQLMSLRATFRSPRRLLTESLAGLVVALALIPEAIAFSVIAGVDPRIGLFASFTMGVVTAIVGGRPAMISAATGAVALVIAPVMKEHGLDYLIATIILAGVFQIILAVLGVTKLMRFIPRSVMIGFVNALAILVFMSQMPELFDVPWMVYPIVVVGLVIVFGLPRITTAIPAPLVAIVAITLVTVLGNVDVPTVSDKGELPDSLPGFFLPNVPLNLETFQIIAPFALSMALVGLLESLMTAKLVDDITDTRSNKTRVSWGQGAANIVTGFLGGLGGCAVIGQTMINVKGSGARSRLSTFLAGVFLLILVVVLGDVVGMIPMAALVAVMIFVSLITFDWHSIRPSTLKRLPKSETAVMLITVAAVVATHNLAVGVGVGVVTAMVLFARRVAHFATVERTELELNGERVATYTVDGELFFASSNDLYTQFDYAKDSSDGIDRVIIDLHGSHIWDASTVAVLDSVTEKYRNHGREVEFIGLNEASVRMRERLAGKLNS | failed
MVIINTAAYHFVSITQPQTLADQIRAHGEIAGLKGTVLIANEGINLFLAGEKEAINAFYAWLCADVRFAALHVKYSVSAYKPFARFKVKVRPEIISFRRGDISPLQVRAPGVSAHTLRDWLRRGCDDNGRRLVMLDARNQQEIAYGTFSGAMTLPITKFTGFPGALAHYRDLLSDATVVSFCTGGIRCEKAVLWMRADGMDNVLQLEGGILGYFEQVGGEGYDGRCFVFDKRVALDPQLRPLYDMRVVASFARSEIS | failed
IHFTTEVITSRIEPANRYVAEKLRITPGQDILYLERLRSIGDEKAMLIENRINIELCPGIVEIDFNQHNLFPTIESLSKRKIRYSESRYAARLIGNERGHFLDISEDAPVLHLEQLVFFSRELPVEFGNVWLKG | failed
MDKMTSSKHYKESMTLLFEGSLRAIPFNIILATLLALDLVYSDVPALIIGAWFFGIVFISLVRSYFCWKIIKRGVEKNRIQATLIEFFLLTFVTGSIWGACYFITLPYVNDLHEFIIILVFGGMCAGAIASLSIYLPAYYAYVFPMLLPVIVYNYALLDVDRTMLATMFLIFIAMLIISAKINHRLLNENFRLFNEKELLINELKVMSITDSLSGLYNRRYFDNIFPQEFNRARRNQYFLSLVSIDIDNFKLINDNLGHPFGDKVLISIADLLKKIFRRSNDILFRLGGDEFAIIIANQPIKETISICETIKNPFKTENLNHTYDSNEQLFMSHVTLSIGIVYIHFESSASIEHAITAADKALYQAKKKGKNQIVVKKLL | failed
MGNQFSINRNRPANAGEAHASSTEAKPAPDAASPSRQVRVATAPSILEGLRKLRLPFNFGARVPPLPEETWAEIARRVDTKTLHRMRAVSKTLKAAADTEIRQLTVNTVEALQAAKRYACLETLKMDGYFGDADLEGLPASLRELDLFSTRYVSAKGLAHLSKLPLVRLKVRANGIHAEAARALAASTTLTALDIRGNGIGDAGAQALAANTSITSLDASFNDIGVAGARALAANTTLTSLDLGFNAIGDEGLQALATNTSLTSLTVGSCEIGDAGAAALANNTALTSVDLTCNHIGEEGAEGLAANTVLTSLDLTRNSISDRGAAALAGNTTLTSLCVNFNDIYGRGARWLAENTTLTTLDISYNPIGDWGALGLADNMTLRSLSVVAGRIGVEGARALAGNTTLTTLDISVNAIGNEGAQALAANATLTTLSLRSCELRAAAAEAFKANTTLASLDIGENRIEAAGAQALADNTALTTLRVTGNQIGMAGAQALAANRSLTKLNISQNDIRSAGAQALAANTSLTSLDVSSASIGAAGAQALAANTSITWLNINDNHIGDAGAQALAAHPALTSLYACDNFIGTAGVQALAANTRLTSLSIWGNRIGDAGVKALAANTTLTKLTIGKRVDKQLGEQIGDLAWQELMASVDRSGMTFHSL | failed
MKRLSLLAATAAFLLASPALAESPFWPVQPKNGPVAAELRGAWKSRGYGWIVQFGPDGPQLFHTAGGACYPDPRREPDPDGVLALWRAEGPGVISLTGDPVGTRYQFDRLPNLPTDCISAGGWTPDRIVAFAADTFAELYPRSAERKLDWPARKAKALTQVGPNATDDQLWLAMAGLLSGLDDPHVELHGMVQGARRDLEPGESPTLMRVRAADPSGDERGWLQAYREGILTGLLQGKGRQAANNRIFWGRVDDVGYLNVLTMGAFARNAAPDDPRPLDAVLDEALSAFVGAKAVVVDVSNNRGGYDIISRRIAARFTAQPRVAYAKVPVGAKAPPQVIKVEPSGAVGFTGPVYVVTSDITVSAGETFTLMMKALPNVTLVGGTTRGAFSDQLPKPLPNGWTLALPAELYRTADGRDLEGRGLAPTVPMAVFPDSDLMGGHAKALSSLFATIREGAAAGATR | failed
MMQDCEKLLDEPGRLAAVRRYAVLDTAPEEPFDKLTRLVCNVLEVPYAAVTLIDADRQWFKSLVGLSGSEGPRHESFCTHTIKTRDPMIVPDATLDPRFRDSPLVTGAAGIRSYLGVPLETPDGYNLGALCAVDTAPRTFSTSQIEIMKSFASLVLDELELRQIALSDALTGAMTRRGWLAAVEKEMARGARQGTQAAIVLFDVDHFKAINDTHGHAVGDAVLQALTRRCLLHLGPADALGRIGGEEFAVLVPDAGLPEAMELAERLRRSFSDAPIEVAGQALRVTASFGVQGLDGDTGNAGSWLAAADRRLYEAKAAGRNRCHGG | failed
MTRRGAQKASPSRAPGETALSTLYVTHPSAVEHVVPTGHPERPARMQAVERALEDERFAALVRCHAPRAEASVAELVHPASYVETIVAASPDEGFFQIDGDTLMSPGSLNTCLHAIGGSNHAVDAVMKGECANAFVAMRPPGHHAERDRAMGFCLFNHAAIAVRHAQKAFGATRVALVDFDVHHGNGSQDIFWADKTVMYASTHQMPLFPGSGATGERGDHDTIVNAPLKAFDGSELFREAFEARILPRLDAFAPDLIVISAGFDAHKLDPLANIQLDEADFGWATRRLMEVADRHAGGRVVSILEGGYSLDGLARSVAAHMDALMGR | failed
